# Experimental data reported in patent US20250361322A1.
# Experiments:
# [1] = molecular target: h1-107_r (human/rat chimera); experiment: live cell staining (HEK293, flow cytometry)
# [2] = molecular target: h108-219_r (human/rat chimera); experiment: live cell staining (HEK293, flow cytometry)
# [3] = molecular target: h159-174_r (human/rat chimera) (UniProt P13726); experiment: live cell staining (HEK293, flow cytometry)
# [4] = molecular target: h159-189_r (human/rat chimera) (UniProt P13726); experiment: live cell staining (HEK293, flow cytometry)
# [5] = molecular target: h159-219_r (human/rat chimera); experiment: live cell staining (HEK293, flow cytometry)
# [6] = molecular target: h167-174_r (human/rat chimera) (UniProt P13726); experiment: live cell staining (HEK293, flow cytometry)
# [7] = molecular target: r141-194_h (rat/human chimera) (UniProt P42533); experiment: live cell staining (HEK293, flow cytometry)
# [8] = molecular target: h1-107_r (human/rat chimera); experiment: live cell staining, flow cytometry, transfected HEK293
# hTF_K149N (human) = hTF_K149N (human) (UniProt P13726); experiment: as above
# [9] = molecular target: r141-194_h (rat/human chimera) (UniProt P42533); experiment: as above
# [10] = molecular target: human Tissue Factor (TF) (human) (UniProt P13726); experiment: cell-based or functional assay
# [11] = molecular target: full-length mouse TF with a C-terminal FLAG tag on Flp-In-CHO cells (mouse) (UniProt P20352); experiment: flow cytometry on CHO cells expressing mouse TF, MFI at 250 nM antibody
# Chain of h1-107_r (human/rat chimera) (chain, as listed by the source mutant limits assumed): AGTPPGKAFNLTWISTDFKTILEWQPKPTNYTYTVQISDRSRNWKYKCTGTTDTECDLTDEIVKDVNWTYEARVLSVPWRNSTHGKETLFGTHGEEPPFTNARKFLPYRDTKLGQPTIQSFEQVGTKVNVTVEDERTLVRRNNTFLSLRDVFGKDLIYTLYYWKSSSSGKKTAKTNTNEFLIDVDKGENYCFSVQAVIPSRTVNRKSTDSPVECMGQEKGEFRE
# Chain of h108-219_r (human/rat chimera) (chain, as listed by the source mutant limits assumed): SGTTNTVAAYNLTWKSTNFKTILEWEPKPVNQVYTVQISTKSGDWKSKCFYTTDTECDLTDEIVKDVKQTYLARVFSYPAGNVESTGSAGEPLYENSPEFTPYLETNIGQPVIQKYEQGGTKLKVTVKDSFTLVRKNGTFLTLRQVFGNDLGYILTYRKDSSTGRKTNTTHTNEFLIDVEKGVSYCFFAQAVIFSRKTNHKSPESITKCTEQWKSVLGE
substance,measurement,setting,value
"5G9 (humanized TF8-5G9, CNTO 860) (antibody)",Percentage antibody binding to TF construct relative to hTF,[1],< 50%
same,Percentage antibody binding to TF construct relative to hTF,[2],< 50%
same,Percentage antibody binding to TF construct relative to hTF,[3],< 50%
same,Percentage antibody binding to TF construct relative to hTF,[4],< 50%
same,Percentage antibody binding to TF construct relative to hTF,[5],< 50%
same,Percentage antibody binding to TF construct relative to hTF,[6],< 50%
same,Percentage antibody binding to TF construct relative to hTF,[7],< 50%
same,percent antibody binding to TF construct relative to hTF,[8],41%
same,percent antibody binding to TF construct relative to hTF,hTF_K149N (human),145%
same,percent antibody binding to TF construct relative to hTF,[9],32%
Control,% GM-CSF at 2.56 nM,[10],88%
same,% GM-CSF at 6.4 nM,[10],86%
same,% GM-CSF at 100 nM,[10],105%
same,% IL8 at 2.56 nM,[10],90%
same,% IL8 at 6.4 nM,[10],88%
same,% IL8 at 16 nM,[10],84%
IgG1 isotype control (antibody),MFI at 250 nM,[11],7400
